Reference: publication PMC12408736

Tested on: Rap1 (Naumovozyma castellii)
Experiment: competition EMSA
Details: labeled N1 probe, 10 mM Tris-HCl pH 7.5, 7 mM MgCl2, 8% glycerol, 10 fmol probe in 15 µl, ~0.6 µg Rap1 extract, 1.5 µg non-specific competitor (E. coli DNA, salmon sperm DNA …); for binding signal: 400x competitor, scale: fold shifted probe remaining vs telomeric competitor

Sequence	binding signal	binding signal (fold shifted probe remaining (reference)) (unlabeled N1 as competitor)
AAGATTTGTATAGTCTGGGTAATGTATGTCAT (double strand) [ST-3]	91	–
AAGGATAGTTGGTCTGGGTGAGGATATTCTGTT (double strand) [ST-1]	60	–
GTCTGGGTGTCTGGGTGTC (double strand) [telomeric ds-probe (19 bp)]	–	1
GTGTCGTTAGGTACGGAGGGTGTTGTTTGGAATATG (double strand) [ST-4]	33	–
TGTTGTTGATGGTGGTGTTGTTTTTTTGTC (double strand) [ST-2]	66	–
